Assay results: patent US20060234925A1

Columns and labels:
[1] = biological target: ovine CXCR3 on peripheral blood mononuclear cells (ovine); assay: cell-based or functional assay
[2] = biological target: caprine CXCR3 (caprine (goat)) (UniProt Q867B2); assay: cell-based or functional assay
UniProt Q867B2, sequence (Q867B2 whole entry): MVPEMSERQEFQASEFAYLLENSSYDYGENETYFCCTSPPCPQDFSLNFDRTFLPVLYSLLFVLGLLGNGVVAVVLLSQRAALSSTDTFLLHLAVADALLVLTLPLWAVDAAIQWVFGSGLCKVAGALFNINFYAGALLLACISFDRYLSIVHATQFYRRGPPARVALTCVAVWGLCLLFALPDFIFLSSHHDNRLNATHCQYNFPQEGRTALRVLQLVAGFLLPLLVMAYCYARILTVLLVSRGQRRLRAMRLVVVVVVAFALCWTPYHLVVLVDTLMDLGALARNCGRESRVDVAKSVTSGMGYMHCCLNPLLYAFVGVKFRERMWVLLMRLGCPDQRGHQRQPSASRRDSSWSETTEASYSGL

chemotaxis of ovine PBMCs [1]: 0.2 to 5 ng/mL
chemotaxis of HTS-1 cells transfected with caprine CXCR3 [2]: 1 to 20 ng/mL
chemotaxis of KU-1 cells transfected with caprine CXCR3 (modified Boyden chamber) [2]: 1 to 20 ng/mL
Substance: recombinant caprine IP-10 (N-terminal histidine tag, mature region, expressed from pET-14b-cIP-10 in E. coli BL21-SI) (ligand)
